Experiments:
[1] = target: the molecule itself; assay: dynamic light scattering; MUC2 D1D2D3 at 0.3 mg/mL in 50 mM MES at varying pH, 150 mM NaCl, 37 °C; large species at pH 5.8 and below
[2] = target: the molecule itself; assay: negative stain TEM; MUC2 D1D2D3 at 0.3 mg/mL in 50 mM MES (pH 5.4), 225 mM NaCl, 10 mM CaCl2, 37 °C for 24 h; diluted to 0.03 mg/mL, stained with 2% uranyl acetate

Protein | binding result [1] | binding result [2]
MUC2 D1D2D3 (residues 21 to 1259 followed by a His6 tag) (domain or fragment, human, UniProt Q02817 21-1259, looked up, Mucin-2 (MUC2), human intestinal gel-forming mucin, amino-terminal D1D2D3 region, residues 21 to 1259, without CysD1; The dimers assemble into two-start helical tubules at acidic pH; also called D1D2D3 fragment; MUC2 amino-terminal fragment spanning the D1D2D3 region but lacking CysD1; source: HEK 293F, transient transfection, purified from culture medium (Ni-NTA); not shown: His6, C-terminal, …) SELQTEGRTRNHGHNVCSTWGNFHYKTFDGDVFRFPGLCDYNFASDCRGSYKEFAVHLKRGPGQAEAPAGVESILLTIKDDTIYLTRHLAVLNGAVVSTPHYSPGLLIEKSDAYTKVYSRAGLTLMWNREDALMLELDTKFRNHTCGLCGDYNGLQSYSEFLSDGVLFSPLEFGNMQKINQPDVVCEDPEEEVAPASCSEHRAECERLLTAEAFADCQDLVPLEPYLRACQQDRCRCPGGDTCVCSTVAEFSRQCSHAGGRPGNWRTATLCPKTCPGNLVYLESGSPCMDTCSHLEVSSLCEEHRMDGCFCPEGTVYDDIGDSGCVPVSQCHCRLHGHLYTPGQEITNDCEQCVCNAGRWVCKDLPCPGTCALEGGSHITTFDGKTYTFHGDCYYVLAKGDHNDSYALLGELAPCGSTDKQTCLKTVVLLADKKKNVVVFKSDGSVLLNELQVNLPHVTASFSVFRPSSYHIMVSMAIGVRLQVQLAPVMQLFVTLDQASQGQVQGLCGNFNGLEGDDFKTASGLVEATGAGFANTWKAQSSCHDKLDWLDDPCSLNIESANYAEHWCSLLKKTETPFGRCHSAVDPAEYYKRCKYDTCNCQNNEDCLCAALSSYARACTAKGVMLWGWREHVCNKDVGSCPNSQVFLYNLTTCQQTCRSLSEADSHCLEGFAPVDGCGCPDHTFLDEKGRCVPLAKCSCYHRGLYLEAGDVVVRQEERCVCRDGRLHCRQIRLIGQSCTAPKIHMDCSNLTALATSKPRALSCQTLAAGYYHTECVSGCVCPDGLMDDGRGGCVVEKECPCVHNNDLYSSGAKIKVDCNTCTCKRGRWVCTQAVCHGTCSIYGSGHYITFDGKYYDFDGHCSYVAVQDYCGQNSSLGSFSIITENVPCGTTGVTCSKAIKIFMGRTELKLEDKHRVVIQRDEGHHVAYTTREVGQYLVVESSTGIIVIWDKRTTVFIKLAPSYKGTVCGLCGNFDHRSNNDFTTRDHMVVSSELDFGNSWKEAPTCPDVSTNPEPCSLNPHRRSWAEKQCSILKSSVFSICHSKVDPKPFYEACVHDSCSCDTGGDCECFCSAVASYAQECTKEGACVFWRTPDLCPIFCDYYNPPHECEWHYEPCGNRSFETCRTINGIHSNISVSYLEGCYPRCPKDRPIYEEDLKKCVTADKCGCYVEDTHYPPGASVPTEETCKSCVCTNSSQVVCRPEEGKILNQTQDGAFCYWEICGPNGTVEKHFNICSIT | binds | 
MUC2 D1D2D3, with an amino-terminal His6 tag and TEV protease cleavage site and lacking a carboxy-terminal His6 (domain or fragment, human, UniProt Q02817 21-1259, looked up, Mucin-2 (MUC2), human, D1D2D3 region; Made by restriction-free cloning from the plasmid of m1; also called D1D2D3 fragment produced with an amino-terminal His6 tag that was removed proteolytically; source: HEK 293F, transient transfection, purified from culture medium (Ni-NTA); tag removed proteolytically during purification; not shown: His6, N-terminal, cleaved) SELQTEGRTRNHGHNVCSTWGNFHYKTFDGDVFRFPGLCDYNFASDCRGSYKEFAVHLKRGPGQAEAPAGVESILLTIKDDTIYLTRHLAVLNGAVVSTPHYSPGLLIEKSDAYTKVYSRAGLTLMWNREDALMLELDTKFRNHTCGLCGDYNGLQSYSEFLSDGVLFSPLEFGNMQKINQPDVVCEDPEEEVAPASCSEHRAECERLLTAEAFADCQDLVPLEPYLRACQQDRCRCPGGDTCVCSTVAEFSRQCSHAGGRPGNWRTATLCPKTCPGNLVYLESGSPCMDTCSHLEVSSLCEEHRMDGCFCPEGTVYDDIGDSGCVPVSQCHCRLHGHLYTPGQEITNDCEQCVCNAGRWVCKDLPCPGTCALEGGSHITTFDGKTYTFHGDCYYVLAKGDHNDSYALLGELAPCGSTDKQTCLKTVVLLADKKKNVVVFKSDGSVLLNELQVNLPHVTASFSVFRPSSYHIMVSMAIGVRLQVQLAPVMQLFVTLDQASQGQVQGLCGNFNGLEGDDFKTASGLVEATGAGFANTWKAQSSCHDKLDWLDDPCSLNIESANYAEHWCSLLKKTETPFGRCHSAVDPAEYYKRCKYDTCNCQNNEDCLCAALSSYARACTAKGVMLWGWREHVCNKDVGSCPNSQVFLYNLTTCQQTCRSLSEADSHCLEGFAPVDGCGCPDHTFLDEKGRCVPLAKCSCYHRGLYLEAGDVVVRQEERCVCRDGRLHCRQIRLIGQSCTAPKIHMDCSNLTALATSKPRALSCQTLAAGYYHTECVSGCVCPDGLMDDGRGGCVVEKECPCVHNNDLYSSGAKIKVDCNTCTCKRGRWVCTQAVCHGTCSIYGSGHYITFDGKYYDFDGHCSYVAVQDYCGQNSSLGSFSIITENVPCGTTGVTCSKAIKIFMGRTELKLEDKHRVVIQRDEGHHVAYTTREVGQYLVVESSTGIIVIWDKRTTVFIKLAPSYKGTVCGLCGNFDHRSNNDFTTRDHMVVSSELDFGNSWKEAPTCPDVSTNPEPCSLNPHRRSWAEKQCSILKSSVFSICHSKVDPKPFYEACVHDSCSCDTGGDCECFCSAVASYAQECTKEGACVFWRTPDLCPIFCDYYNPPHECEWHYEPCGNRSFETCRTINGIHSNISVSYLEGCYPRCPKDRPIYEEDLKKCVTADKCGCYVEDTHYPPGASVPTEETCKSCVCTNSSQVVCRPEEGKILNQTQDGAFCYWEICGPNGTVEKHFNICSIT |  | binds

Source: paper PMC9169620, “Helical self-assembly of a mucin segment suggests an evolutionary origin for von Willebrand factor tubules” (Proceedings of the National Academy of Sciences of the …, 2022)
